± gives the uncertainty stated by the source.
B1: POU domain, class 4, transcription factor 1, residues 266 to 347; numbered along this chain, Q01851 (parent)
chain: RELEAFAERFKQRRIKLGVTQADVGSALANLKIPGVGSLSQSTICRFESLTLSHNNMIALKPILQAWLEEAEGAQREKMNKP

Variants of: B1
Test: abundance fitness (aPCA) (normalised: wild type 0, dead -1); higher = more abundant; growth selection in yeast, the domain comes from the species named
Settings: Homo sapiens

Row | Variant | abundance fitness
1 | RELEAFAERFKQRRIKLGVTQADVGSALANLKIPGVGSLSQSTICRFESLTLSHNNMFALKPILQAWLEEAEGAQREKMNKP [I58F] | -0.075 ± 0.088
2 | RELEAFAERFKQRRIKLGVTQADVGSALANLKIPGVGSLSQSTICRFESLTLSHNNMLALKPILQAWLEEAEGAQREKMNKP [I58L] | -0.031 ± 0.052
3 | RELEAFAERFKQRRIKLGVTQADVGSALANLKIPGVGSLSQSTICRFESLTLSHNNMCALKPILQAWLEEAEGAQREKMNKP [I58C] | -0.094 ± 0.093
4 | RELEAFAERFKQRRIKLGVTQADVGSALANLKIPGVGSLSQSTICRFESLTLSHNNMEALKPILQAWLEEAEGAQREKMNKP [I58E] | -0.023 ± 0.069
5 | RELEAFAERFKQRRIKLGVTQADVGSALANLKIPGVGSLSQSTICRFESLTLSHNNMGALKPILQAWLEEAEGAQREKMNKP [I58G] | -0.147 ± 0.045
6 | RELEAFAERFKQRRIKLGVTQADVGSALANLKIPGVGSLSQSTICRFESLTLSHNNMAALKPILQAWLEEAEGAQREKMNKP [I58A] | 0.041 ± 0.053
7 | RELEAFAERFKQRRIKLGVTQADVGSALANLKIPGVGSLSQSTICRFESLTLSHNNMHALKPILQAWLEEAEGAQREKMNKP [I58H] | -0.169 ± 0.17
8 | RELEAFAERFKQRRIKLGVTQADVGSALANLKIPGVGSLSQSTICRFESLTLSHNNMDALKPILQAWLEEAEGAQREKMNKP [I58D] | -0.167 ± 0.091
9 | RELEAFAERFKQRRIKLGVTQADVGSALANLKIPGVGSLSQSTICRFESLTLSHNMMIALKPILQAWLEEAEGAQREKMNKP [N56M] | 0.078 ± 0.075
10 | RELEAFAERFKQRRIKLGVTQADVGSALANLKIPGVGSLSQSTICRFESLTLSHNQMIALKPILQAWLEEAEGAQREKMNKP [N56Q] | 0.083 ± 0.063
11 | RELEAFAERFKQRRIKLGVTQADVGSALANLKIPGVGSLSQSTICRFESLTLSHNTMIALKPILQAWLEEAEGAQREKMNKP [N56T] | -0.029 ± 0.081
12 | RELEAFAERFKQRRIKLGVTQADVGSALANLKIPGVGSLSQSTICRFESLTLSHNPMIALKPILQAWLEEAEGAQREKMNKP [N56P] | -0.301 ± 0.094
13 | RELEAFAERFKQRRIKLGVTQADVGSALANLKIPGVGSLSQSTICRFESLTLSHNSMIALKPILQAWLEEAEGAQREKMNKP [N56S] | 0.046 ± 0.052
14 | RELEAFAERFKQRRIKLGVTQADVGSALANLKIPGVGSLSQSTICRFESLTLSHNWMIALKPILQAWLEEAEGAQREKMNKP [N56W] | -0.062 ± 0.049
15 | RELEAFAERFKQRRIKLGVTQADVGSALANLKIPGVGSLSQSTICRFESLTLSHNYMIALKPILQAWLEEAEGAQREKMNKP [N56Y] | 0.23 ± 0.24
16 | RELEAFAERFKQRRIKLGVTQADVGSALANLKIPGVGSLSQSTICRFESLTLSHNVMIALKPILQAWLEEAEGAQREKMNKP [N56V] | 0.066 ± 0.04
17 | RELEAFAERFKQRRIKLGVTQADVGSALANLKIPGVGSLSQSTICRFESLTLSHNNGIALKPILQAWLEEAEGAQREKMNKP [M57G] | -0.449 ± 0.04

Row | Variant | abundance fitness
18 | RELEAFAERFKQRRIKLGVTQADVGSALANLKIPGVGSLSQSTICRFESLTLSHNNQIALKPILQAWLEEAEGAQREKMNKP [M57Q] | -0.197 ± 0.064
19 | RELEAFAERFKQRRIKLGVTQADVGSALANLKIPGVGSLSQSTICRFESLTLSHNNWIALKPILQAWLEEAEGAQREKMNKP [M57W] | -0.289 ± 0.049
20 | RELEAFAERFKQRRIKLGVTQADVGSALANLKIPGVGSLSQSTICRFESLTLSHNNCIALKPILQAWLEEAEGAQREKMNKP [M57C] | -0.268 ± 0.11
21 | RELEAFAERFKQRRIKLGVTQADVGSALANLKIPGVGSLSQSTICRFESLTLSHNNEIALKPILQAWLEEAEGAQREKMNKP [M57E] | -0.706 ± 0.085
22 | RELEAFAERFKQRRIKLGVTQADVGSALANLKIPGVGSLSQSTICRFESLTLSHNNPIALKPILQAWLEEAEGAQREKMNKP [M57P] | -0.606 ± 0.11
23 | RELEAFAERFKQRRIKLGVTQADVGSALANLKIPGVGSLSQSTICRFESLTLSHNNDIALKPILQAWLEEAEGAQREKMNKP [M57D] | -0.935 ± 0.31
24 | RELEAFAERFKQRRIKLGVTQADVGSALANLKIPGVGSLSQSTICRFESLTLSHNNTIALKPILQAWLEEAEGAQREKMNKP [M57T] | -0.374 ± 0.062
25 | RELEAFAERFKQRRIKLGVTQADVGSALANLKIPGVGSLSQSTICRFESLTLSHNNRIALKPILQAWLEEAEGAQREKMNKP [M57R] | -0.775 ± 0.058
26 | RELEAFAERFKQRRIKLGVTQADVGSALANLKIPGVGSLSQSTICRFESLTLSHNNFIALKPILQAWLEEAEGAQREKMNKP [M57F] | -0.309 ± 0.16
27 | RELEAFAERFKQRRIKLGVTQADVGSALANLKIPGVGSLSQSTICRFESLTLSHNNHIALKPILQAWLEEAEGAQREKMNKP [M57H] | -0.399 ± 0.16
28 | RELEAFAERFKQRRIKLGVTQADVGSALANLKIPGVGSLSQSTICRFESLTLSHNNVIALKPILQAWLEEAEGAQREKMNKP [M57V] | -0.273 ± 0.041
29 | RELEAFAERFKQRRIKLGVTQADVGSALANLKIPGVGSLSQSTICRFESLTLSHNNKIALKPILQAWLEEAEGAQREKMNKP [M57K] | -0.901 ± 0.15
30 | RELEAFAERFKQRRIKLGVTQADVGSALANLKIPGVGSLSQSTICRFESLTLSHNNIIALKPILQAWLEEAEGAQREKMNKP [M57I] | -0.16 ± 0.099
31 | RELEAFAERFKQRRIKLGVTQADVGSALANLKIPGVGSLSQSTICRFESLTLSHNNNIALKPILQAWLEEAEGAQREKMNKP [M57N] | -0.19 ± 0.17
32 | RELEAFAERFKQRRIKLGVTQADVGSALANLKIPGVGSLSQSTICRFESLTLSHNNLIALKPILQAWLEEAEGAQREKMNKP [M57L] | -0.031 ± 0.037
33 | RELEAFAERFKQRRIKLGVTQADVGSALANLKIPGVGSLSQSTICRFESLTLSHNNSIALKPILQAWLEEAEGAQREKMNKP [M57S] | -0.309 ± 0.053
34 | RELEAFAERFKQRRIKLGVTQADVGSALANLKIPGVGSLSQSTICRFESLTLSHNNAIALKPILQAWLEEAEGAQREKMNKP [M57A] | -0.132 ± 0.047

Source: the Human Domainome abundance scans (Beltran et al. 2025)
